Measurements taken from publication PMC9641244.
Numbering of substitutions follows the chain as printed.

What was measured:
DMC1 D317K [1] = target: T1, DMC1 D317K (Homo sapiens, UniProt Q14565 1-340, D317K); test: EMSA
T1 sequence: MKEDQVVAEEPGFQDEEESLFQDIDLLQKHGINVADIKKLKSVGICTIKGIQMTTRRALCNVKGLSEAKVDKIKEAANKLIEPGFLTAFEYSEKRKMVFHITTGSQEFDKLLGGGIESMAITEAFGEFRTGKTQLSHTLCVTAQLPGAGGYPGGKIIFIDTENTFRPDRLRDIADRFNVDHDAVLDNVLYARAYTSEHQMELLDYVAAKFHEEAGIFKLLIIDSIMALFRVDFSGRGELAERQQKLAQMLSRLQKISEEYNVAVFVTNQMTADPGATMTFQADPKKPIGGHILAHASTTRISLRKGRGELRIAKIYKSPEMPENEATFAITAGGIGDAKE

DMC1 D317A [2] = target: T2, DMC1 D317A (Homo sapiens, UniProt Q14565 1-340, D317A); test: EMSA
T2 sequence: T1 sequence with K317A

Dmc1 E157K = target: T3, Dmc1 E157K (Saccharomyces cerevisiae, UniProt P25453 1-334, E157K); test: EMSA
T3 sequence: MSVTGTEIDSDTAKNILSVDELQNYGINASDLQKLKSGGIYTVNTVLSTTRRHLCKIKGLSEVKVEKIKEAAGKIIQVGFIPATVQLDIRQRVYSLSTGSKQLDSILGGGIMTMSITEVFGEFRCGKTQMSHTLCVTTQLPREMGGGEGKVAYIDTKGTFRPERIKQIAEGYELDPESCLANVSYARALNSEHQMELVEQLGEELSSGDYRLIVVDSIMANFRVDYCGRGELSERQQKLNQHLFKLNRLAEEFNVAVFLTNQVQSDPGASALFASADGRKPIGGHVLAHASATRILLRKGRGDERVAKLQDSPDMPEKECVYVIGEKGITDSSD

Dmc1 D311K = target: T4, Dmc1 D311K (Saccharomyces cerevisiae, UniProt P25453 1-334, D311K); test: EMSA
T4 sequence: T3 sequence with K157E, D311K

DMC1 E162A = target: T5, DMC1 E162A (Homo sapiens, UniProt Q14565 1-340, E162A); test: EMSA
T5 sequence: T1 sequence with E162A, K317D

DMC1 D317A [3] = target: T2, DMC1 D317A; test: BLI
DMC1 D317K [4] = target: T1, DMC1 D317K; test: BLI
DMC1 WT = target: T6, DMC1 WT (Homo sapiens, UniProt Q14565 1-340); test: BLI
T6 sequence: T1 sequence with K317D

DMC1 E162K = target: T7, DMC1 E162K (Homo sapiens, UniProt Q14565 1-340, E162K); test: BLI
T7 sequence: T1 sequence with E162K, K317D

Measured: binding result

B1: pR231 90-mer (ssDNA)
DNA: AAATCAATCTAAAGTATATATGAGTAAACTTGGTCTGACAGTTACCAATGCTTAATCAGTGAGGCACCTATCTCAGCGATCTGTCTATTT
binds: DMC1 D317K [1] | DMC1 D317A [2] | Dmc1 E157K | Dmc1 D311K | DMC1 E162A

B2: pR231 90-mer biotinylated (ssDNA)
DNA: B1 DNA
binds: DMC1 D317A [3] | DMC1 D317K [4] | DMC1 WT | DMC1 E162K
